The values below come from the nanobody polyreactivity screen of Harvey et al. (2022).

The nature of this data set: yeast display, Sf9 membrane polyspecificity reagent, FACS + sequencing; frameworks hold sequencing errors. A digest of the protocol:
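A synthetic nanobody library was expressed on Saccharomyces cerevisiae BJ5465 by galactose induction for 36–48 hours. The library was stained for 1 hour at 4 °C with 10% biotinylated, detergent-solubilized Sf9 membrane reagent and enriched with streptavidin microbeads before FACS. Low and high (top ~1%) gates were set on anti-HA fluorescence for expression and streptavidin fluorescence for reagent binding, and each polyreactivity label reflects the gate of origin.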
As to “QVQVVESGGGLVQAGGSLRISCAASGRISVVHAMGWYRQAPGKERELVATINSGGSTYADSVKGRFTNSRDNAKNNVFFQMISQIPEDTAFYYCSARTFRISRLDFWGQCTQVTVSS”, the “polyreactivity (PSR sort gate)” value was “high polyreactivity”.
Under “QVQVVESGGGLVQAGGSLRLSCAASGFIFRRYAMGWYRQAPGKEMELVAAINYSGGSTYYADSVKGRFTISRDNEKNTVYLQMKSLKPEDNAVYYCNAYGLRYYEYDYWGQGTQVTVSS” stands “low polyreactivity”; under “QVQVVESGGGLVQAGGSLRLSCAASGFTIFSYAMGWYRQAPGKERELVAAISRRGGSTYYADSVKGRFTISRDNAKNTVYLQMNSLKPEDTAVYYCNAKWTSHGTYAEDYWGQGTQVTVSS”, “high polyreactivity”.
Take “QVQVVESGGGLVQAGGSLRLSCAASGGTDYYYAMGWYRQAPGKERELFAAITESGGSTYYADSVKARYTISRDNAKTTVYVQMNSLKPEDTAVYYCNADWRRWYIFSYDYWGQGTQVTVSS”: the “polyreactivity (PSR sort gate)” value is recorded as “low polyreactivity”.
Under “QVQVVESGGGLVQAGGSLRLSCAASGLISWLYVMGWYRQAPGKERELVAAIRYSGGRTYYADSVKGRFTISRDNAKNTDYLQMHSLKPEDTAVYYCNALPWALYDSTSIYYYWGQGTQVTVSS” stands “low polyreactivity”; under “QVQVVESGGGLVQAGGSLRLSCAASGRIFNYNAMGWYRQAPGKERELVAAITRSGGSTYYADSVKGRFTISRDNAKNTVFLQMNSLKPEDTAVYYCNKRYIPWAYDYWGQGTQVTVSS”, “high polyreactivity”; under “QVQVVESGGGLVQAGGSLRLSCAASGRILYPYTMGWYRQAPGKERELVAAISYSGGRTYYADSVKGRFTISRDNAKNTVYLQMNRLKPEDTAVYYFNAVFRVRGASQFDYWGQGTQVTVSS”, “high polyreactivity”.
Under “QVQVVESGGGLVQAGGSLRLSCAASGRTFFFYAMGWYRQAPGKERELVAGITSRGTRTYYADSVKGRFTISRDNAKNTVYLQMNSLKPEDTAVYYCATDDSRDWLNYWGQGTQVTVSS” stands “low polyreactivity”.
Turning to “QVQVVESGGGLVQAGGSLRLSCAASGRTFGPYAMGWFRQAPGKEREFVAAISYSGGSTYYADSVKWRFTISRDNAKNTVYLQMNSLKPEDTAVYYCAAEGDYYDFISPPLDYWGQGTQVTVAS”, the “polyreactivity (PSR sort gate)” value is on record as “low polyreactivity”.
The value for “QVQVVESGGGLVQAGGSLRLSCAASGRTFIGNAMGWYRQAPGKERELVAAMSRSGGSTSYADSVKGRFTISRDNAKNTVYLQMNSLKPEDTAVYYCAKGYRGYSYGYWGQGTQVSVSS” was “high polyreactivity”; that for “QVQVVESGGGLVQAGGSLRLSCAASGRTFRKNAMGWYRQAPGKERELVAAISSGGGSTYYADSVKGRFTISRDNAKNSDYLQINSLKPEDTAVYYCAVLVWYYDGYYSSYDYWGQGTQVTVSS” was “high polyreactivity”.
On to “QVQVVESGGGLVQAGGSLRLSCAASGSIFGRYAMGWYRQAPGKERELVAGITRGGSPYYADSVKGRFTISRDNAKNTVYLQMNSLKPEDTAVYYCNRAARYGEYDYWGQGTQVTVSS”, for which the “polyreactivity (PSR sort gate)” value was “high polyreactivity”.
As to “QVQVVESGGGLVQAGGSLRLSCAASGSIFHNNAMGWYRQAPGKERELVASITSRGGSTYYADSVKGRFTISRDNAKNTVYLQMNSLKPEDTAVYYCAARPYARVKTHGYWGQGTQVSVSS”, the “polyreactivity (PSR sort gate)” value is “low polyreactivity”.
Under “QVQVVESGGGLVQAGGSLRLSCAASGSTFPVYAMGWYRQAPGKERELVAAISRSGASTYADSVKGRFTISRDNAKNTVYLQMNSLKPEDTAVYYCNKDPGNVSSYTGGGYWGQGTQVTVSS” stands “low polyreactivity”; under “QVQVVESGGGLVQAGGSLRLSCAASGSTFRYYAMGWYRQAPGKERELVAGISKVGGRTYADSVKGRFTISRDNAKYTVYLQMNSLKTEDTAVYYCAADAVRRTPGYDYWGHGTQVTVSS”, “high polyreactivity”; under “QVQVVESGGGLVQAGGSLRLSCAASGSTFSSYVMGWYRQATGKERELVAAISSIGGSTYYADSVKGRFTISRDNAKITVYLQMNSLKPEDTAVYYCAAEPPGSTYEGGYWGQGTQVTVSS”, “low polyreactivity”.
The value for “QVQVVESGGGLVQAGGSLRLSCAPSGRIFTIYVMGWYRQAPGKERELVATITYSSGSTTYADSVKGRFTISRDNAKNTVYLQMNSLKPEDTAVYYCAKKYYTGYGYWGQGTQVTVSS” was “low polyreactivity”; that for “QVQVVESGGGLVQAVGSLRLSCAASGRIFRGNAMGWDRQAPRKERELVAAISRRSGSTYYADSVKGRFTISRDNAKNTVYLQMNSLIPEDTAVYYCAATSSLGDFSYDSWGQGTQVTESS” was “high polyreactivity”; that for “QVQVVESGGGLVQPGGSLRLSCAASGSTFGGKAMGWYRQATGKERELVAGITSSGTSTYYADSVKGRFTISRDNAKNTVFLQMNSLKPEDTAVYYCATDEAVESYGFELFDYWGQGTQVTVSS” was “low polyreactivity”.
“QVQVVESGGGLVQPGGSLRVSCAASGSTFIAYVKGWSRQAPGKEWELVAAISWSGSNTYYADSVKGRFTISRDNAKITVYFQMNCLKPEDTAVYYCNARSFAPDKKYDYWGQGTQVTVSS”: the “polyreactivity (PSR sort gate)” value is on record as “low polyreactivity”.
Under “QVRLVESAGGIVQAGGSLRLSCAASGRTFSVHAMGWYTQAPGKERELVAAISWDGGSTYYGDSVKGRFTISRDNSKNTVYLQMNSLKPEDTAVYYCYKELYYAYDYWGLGTQVTVSS” stands “low polyreactivity”.
On to “QVRLVESGGGLVQAGGSLRLSCAASGRIFLYNARGWYRQAPGKERELVAAINLSDVDTYYADSVKGRFTISRDNAKNTVYLQMNSLKPEDTAVYYCAADGIYWSTIGYYWGQGTQVTVSS”, for which the “polyreactivity (PSR sort gate)” value is on record as “low polyreactivity”.
For “QVWLQESGGGLVQACGSLRLSCAASGTISRDIFMGWYRQAPGKEREFVATIAQGGITNYADSVKGRFTISRDNAKNTLYLQMNSVKPGDTAVYYCAARDGNCYWFYYWGQGTQVTVSS”, the “polyreactivity (PSR sort gate)” value is on record as “high polyreactivity”.
The value for “QVWLQESGGGLVQACGSLRLSCAASGTISRDIFMGWYRQAPGKEREFVATIAQGGITNYADSVKGRFTISRDNAKNTVYLQMNSVKPGDTAVYYCAARDGNCYWFYYGGQGTQVTVSS” was “high polyreactivity”; that for “QYQLVESGGGLVQAGGSLRLICAASGRIINKKAMGRYRHAPGKERELVAAITSSGGSTYYADSVKGRFTISRDNAKNTVYLQMNSLKPEDTAVYYCAAYAYGRFGKLNYWGQGTQVTVSS” was “low polyreactivity”.
The value for “QYQLVESGGGLVQAGGSLRLSCAASGSTFRANTMGWYRQAPGKERELVSTITRGTITKYADSVKGRFTISRDNAKNPVYLQMNSLKAEDTAVFDCAVDQAYVRRNWGYTGYVTYDHWGQGTQVTVSS” was “high polyreactivity”; that for “QYQLVESGGGLVQAGGSLSLSCAASATTFSAYAMGWYRQAPGKERELVAAISASGGSTYYADSVKGRFTISRDNAKNTVYLQMNSLKPEDNAVYFCNADRWKYELDYCGQGTQVTVSS” was “high polyreactivity”; that for “RVQLQESGGGLVQAGGSLRLSCAASGNIFDTDIMGWYRQAPGKESELVASITDGGSTTYADSEKGRFTISRDNAKNTVYLQMNSLKPEDTAVYYCAADQGRYGIIGWDDYWGQGTQVTVSS” was “low polyreactivity”.
With “RVQLQESGGGLVQAGGSLRLSCAASGTIFIRGDMGWYRQAPGKEREFVASIDTGSNTYYADSEKGRFTISRDNAKNAVYLQMNCLKPGDTAVYYCVVDYQLSGRLRYWGQGTQVTLSS”, the “polyreactivity (PSR sort gate)” value is listed as “low polyreactivity”.
The value for “RVQLVESGGGLVQAGGSLRLSCAASGSIFRGYAMGWYRQAPGKERGLVAAITSGGSTNYADSVKGRFTISRDNAKNTVYLQMNSLKPEDTAVYYCAKDLALVAPLSDYWGQGTQVTVSS” was “low polyreactivity”.
